According to the DeepSol protein solubility set:

Test: soluble on expression in E. coli; label from the status in PepcDB or PDB records

**Q.** With “MSKDVSIGWMYEGAKGNVHREDYLLGKKVDKNFEKYSDVVNAQKAEAIDSIVGTRAVFNSGQSTGLKTSSLQKDIIKSEDPFVAVKVREETKRREIMDNPLTKMRLQAALKSMMTSKAEKSKEKKSKKDKKKKKKKRSSSSSDESSDERVERKRRRSPSPKRRRRPSEKPRKRSRSPRRERPRSPKRSREESRKLSRKPSSSRSKSPRRSREDPRKVARKPSRSRSRSAERLRRKSRSPRRSREEPRKMSRSRSRSADKASSSRQFDSHIPRHLQQQRSRHDSSSGSESEHETRSSHRRRNSDDDERQDPRKKSYGLVEMRKRTAEEREEESRAPTKEYKLVKIPTGRGTGNTPREPRRALSEAEKAARLAEMQQDNVKWRDEIRERNVTKGRKEDDEEKEEADKNGYAPSFIRSQMREACDDMTVEKRLQSNKRGVQRAHGYMDRSFAKK” as the sequence, how does the “soluble on expression in E. coli” value read?
**A.** not soluble

**Q.** Which “soluble on expression in E. coli” value does the source give for “MPELEVKGKKLRLDEDGFLQDWEEWDEEVAEALAKDTRFSPQPIELTEEHWKIIRYLRDYFIKYGVAPPVRMLVKHCKKEVRPDCNLQYIYKLFPQGPAKDACRIAGLPKPTGCV” here?
**A.** soluble

**Q.** Which “soluble on expression in E. coli” value does the source give for “MSLKTMSDTSEIIFSNYGIYDLGDNLELLLPNTLIKFQRISDNAFSYFRENSEGQIIEKIIPVKSNDIKIELAPIRPLNHPAKRTNYVFLKLDKEIHLGENSAASIFVHCPIEIGIFLIYGDNHEPLDWITCNPLNSRFSLYGSPDTGTLCKYAEVSLATDYNDSVSYVNGVMHIVIENTLSFAQTISKVIFPITDNNLYYKDSKSIVDGIKIIMKKRAAVNIAEIKPTLVDTEWTQAPAWDNSIDSVHHMEMTLEEGHHHHHH” here?
**A.** soluble

**Q.** With “MSDSHHKPVWDRTHHAKMATGIGDPQCFKGMAGKSKFNVGDRVRIKDLPDLFYTRTMTYTRGATGTIVRLVYESPAAEDEAFGNEENVEWFYSIVFAQKDLWPEYSDTFANDTLETEIPERYLEKA” as the sequence, how does the “soluble on expression in E. coli” value read?
**A.** soluble

**Q.** Which “soluble on expression in E. coli” value does the source give for “MSLKLTVVGLGYIGLPTSIMFAKHGVDVLGVDINQQTIDKLQSGQISIEEPGLQEVYEEVLSSGKLKVSTTPEASDVFIIAVPTPNNDDQYRSCDISLVMRALDSILPFLEKGNTIIVESTIAPKTMDDFVKPVIENLGFTIGEDICLVHCPERVLPGKILEELVHNNRIIGGVTKACIEAGKYVYRTFVQGEMIETDARTAEMSKLMENTYRDVNIALANELTKICNNLNINVLDVIEMANKHPRVNIHQPGPGVGGHCLAVDPYFIIAKDPENAKLIQTGREINNSMPAYVVDTTKQIIKALSGNKVTVFGLTYKGDVDDIRESPAFDIYELLNQEPDIEVCAYDPHVELDFVEHDMSHAVKDASLVLILSDHSEFKNLSDSHFDKMKHKVIFDTKNVVKSSFEDVSYYNYGNIFNFIDKEGHHHHHH” here?
**A.** soluble

**Q.** For “MNRARKTSSCGCFRSAFCLLKPSTSSASEEHGDSDKKLLSVQLITPRDEEEQTSSRSIKIPPLDLNGLDCKKNAVAARRAGRRRTSEGGGVRGKGHFAEVVLDGLQRPVSLLRNQKEKSNSDDNCQEKEPTSPSSSRKKSYDNAPALESLEKLRYILHQLNSGQLPLEDLKRNIEYAALVLETAYMDETRRICDEDDDLAEVTPETVPDEVREWLAATFTRQNAGKKRDKPKFKSVANAIRTGIFFEKLFRKQQVVQCPIPPEIAELMKEVCTWSFSPFQLNEVSEGHALKYVGFELFNRYGFMDRFKVPLTALENYLSALEVGYSKHNNPYHNVVHAADVTQSSHFMLSQTGLANSLGDLELLAVLFGALIHDYEHTGHTNNFHIQSQSQFAMLYNDRSVLENHHVSSCFRLMKEDDKNILTHLTRDEYKELRNMVIEIVLATDMSTHFMQIKTMKSMLSLPEGIDKNKALCLIVHACDISHPAKPWNLHERWTEGVLEEFFRQGDLEASMGLPYSPLCDRHTVHVADSQIGFIDFIVEPTMVVCGELLVKMVEPLVSLPPTDSLFPPSVDGGDDKSPSNALSPLPDLRNSSTSPSSIRRIPLNYAGKLDIPTPWMKFLHENKAHWKERAAKEEEERKIKEAAEAEAAAKQVEENKENGVTTN”, which “soluble on expression in E. coli” value is on record?
**A.** not soluble

**Q.** With “MPPRMSVAPERALIDVDREIRIDGFGPYACIDVTAEMRMCGVPWRSRATFLAGADGSLDLGRDSPVSGDYAEPDAMGLVWSMQCQDPPRAVFPPDRTDALTVHITASDGRHEAHATLVQEFLAEGVRHQAVRARAGGMSLSGELYTPP” as the sequence, how does the “soluble on expression in E. coli” value read?
**A.** not soluble

**Q.** For “MSEEPVAAPGTISHPVYKLKRNWTWWYLNDERNKSWEERLKNVKTFSSVGEFWALHDSIKPPSGLNPPSDYNVFRDGIEPMWEVPQNQNGGRWLITIEKGRTPEIMDTIWTEILMAMIGEQFSDDIESLCGIVCNVRGKGSKISVWTTNSADDGANLRIGGVLKQVLNNASMIHQRPLYDVLRYEDHESCQKKTSSGVKAKHAIYAVEPREEKAPVPVSTETPATPAT”, which “soluble on expression in E. coli” value is on record?
**A.** not soluble

**Q.** With “MGSDKIHHHHHHMSIMNSLLQQKETVVKGWLTYYVSVDDPYVFALKDDHRLMDETGFVLENLFIGMTEDLAKMNTFARELGKAQFITSLGISRILFHIRLLEEFLLDYASEINAECNNYRELYLFSIKLHQVFSSFTQHLIEGYTLATEQLVQQKENQIIKSSTKLIWLAEKVFLLPLIGKITDERAKQITETALFETCEQPVNYLIIDLSGVQFDSANIGEYIEHFFSSLKLVGVTPIITGMQPETAKIMVQANLTEQKGIKTFATLRQATKSLIKEKEARNAIK” as the sequence, how does the “soluble on expression in E. coli” value read?
**A.** not soluble

**Q.** Which “soluble on expression in E. coli” value does the source give for “MAHHHHHHMEVKEVQPQKRLQPACDAKGENGFPLTIPCERQKVANLAPHRPLRRFLEAMRADNQNLCALKGSAVHHLKKDLRGDEKQVVLSCETPSRSNRLREKYECMKKMRFNETQEALARECDLSRIIIELQKRIEDAEASREFEREVHARESFYLLKENECLKEQVRTTEKMLLDVRNNYNLEISKLNTRVSDLEDSLVAEGQRAKTREAEQERAIQNLCSNLYTTQGELERYVEKNRELASVNSLLEEMRAESWRDKRECTVWYEVLRRREVFMLLEREAFTELQCLCMQEMNRFWQIKDDSYQAMFCSEAERFLGHIIREAEICYEMKQLMFDNATASIEKETWISLHFSKVQELSRLSEKHEALSILLAQYMREVEEIQQGNLEQVLRRKTVDDASIAYMLHQRDNEVSDKLRTWKGALQEAHKLLTALLKRYEPFQRGDEVFVGRVMEWLISAPHVKEVINVFLP” here?
**A.** not soluble

**Q.** With “MRESPYRILEEALRPHLGARAQVVLEEGLKRLGKRPEELSEKDAETLLKGLIFRELQARLPAAQARRAVEEALARLAPAPEGGLEALERGLARFGLYVDWPEVGRLRALVNRLRREPDPRLLQEGLALLDHLEEKLEEALLRQAQDLAHLEEALERVRPLGGPKVRRLESLIQIVREAHREGTLAQGEVERARGPGPEAPQVPGLQSRPARHPPRDGL” as the sequence, how does the “soluble on expression in E. coli” value read?
**A.** soluble

**Q.** Which “soluble on expression in E. coli” value does the source give for “MGSDKIHHHHHHMKSIMDSLFDSPVQTARSSSDSDAHNFFKAGPYAPLAARMRPQSLDEVVGQRHLLDSGKPLQRLIAGSGDASVILYGPPGTGKTTIASLISAGTGHEFVGLSALNSGVKEIREVIDQARRNLIHGKRTVLFIDEVHRFSKTQQDALLAAVENRTVLLVAATTENPSFSVVAPLLSRSLILQLKPLTHDDIKTVLLHALQDKRGLDNRITISDEALEQLVLLSGGDARRSLTYLEAASESLADGEELTPEIIRHNVDKAIVRYDRDGDQHYDVVSAFIKSMRGSDVDAALHYLARMIDAGEDPRFIARRLVIHASEDVGMADPQALSVAVAASQAVALIGMPEARINLAQATIHLATAPKSNAVITAIDAALADVKQGKTGPVPAHLRDGHYAGAKQLGNAVGYKYPHDDPRGIVEQQYIPNGLEDVVYYRPSEHGAEQRIESYLGKLRRIVRGQRR” here?
**A.** not soluble

**Q.** With “MGSDKIHHHHHHMMNKREQDYWIFSVELRESKVSEENGKSIVITPLGLSAKRILIAGTVSSKQSDDRMARISLADPIGSFYVTAFSGGFNPEEKAMVDSLEVDDKAMVMGKINPYRTSEGVYLFSIRPELVSKTGEDALRLWTLKAYYFAKRRIYAIREAQKLQDPKADELISLGYSRVEAEAAISSIKNFPGYDYQRILEAIETAIYSVSTPTQLPEVRSKILNYIKENDTDGKGCKYEDIVIAAKNMGIDQSTTDEILNTLGSSGEIFEISLKRYKAVEPE” as the sequence, how does the “soluble on expression in E. coli” value read?
**A.** not soluble

**Q.** Which “soluble on expression in E. coli” value does the source give for “MLEDLKRQVLEANLALPKHNLVTLTWGNVSAVDRERGVFVIKPSGVDYSIMTADDMVVVSIETGEVVEGAKKPSSDTPTHRLLYQAFPSIGGIVHTHSRHATIWAQAGQSIPATGTTHADYFYGTIPCTRKMTDAEINGEYEWETGNVIVETFEKQGIDAAQMPGVLVHSHGPFAWGKNAEDAVHNAIVLEEVAYMGIFCRQLAPQLPDMQQTLLNKHYLRKHGAKAYYGQ” here?
**A.** soluble
